Assay results taken from US20130089557A1 (SAMSUNG ELECTRONICS, published 2013).
Where a chain is given by its changes, count along the chain named.

Tests used:
[1] = biological target: T1, human c-Met protein (human, UniProt P08581 25-932, limits assumed); experiment: method not described
T1 construct: also called c-Met antigen

[2] = biological target: c-Met on MKN45 gastric cancer cells and on Caki-1 cells (human, UniProt P08581 25-1390); experiment: cell-based or functional assay
[3] = biological target: T2, FSPQIEDPSQCPDCVVSALGAKVL (SEQ ID NO: 71); experiment: PEPSCAN peptide ELISA
T2 construct: Peptide with the E168D mutation
T2 peptide: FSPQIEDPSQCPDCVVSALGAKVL
Description: (§1) For epitope mapping, PEPSCAN-based ELISA was performed using a total number of 529 linear and CLIPS peptides. The peptides were maintained at room temperature for 30 minutes by using a 5% blocking solution to provoke a reaction (4% ovalbumin, 5% horse serum, and 1% Tween 80). […] Thereafter, the resultant product was treated with rabbit-anti-sheep antibody (SIGMA) and washed with PBS, and the washed product was then treated with peroxidase-attached swine-anti-rabbit antibody (SIGMA) and washed with PBS. Then, the resultant product was treated with 2 ul/ml of peroxidase 2,2′-azino-di-3-ethylbenzthiazoline sulfonate (ABTS)(SIGMA) in 3% H₂O₂, and a color reaction was measured after 1 hour.

[4] = biological target: T3, CSPQIEDPSQC (SEQ ID NO: 72); experiment: PEPSCAN peptide ELISA
T3 peptide: CSPQIEDPSQC
Description: as §1

[5] = biological target: T4, CPQIEDPSQAC (SEQ ID NO: 73); experiment: PEPSCAN peptide ELISA
T4 peptide: CPQIEDPSQAC
Description: as §1

[6] = biological target: T5, CQIEDPSQAPC (SEQ ID NO: 74); experiment: PEPSCAN peptide ELISA
T5 peptide: CQIEDPSQAPC
Description: as §1

[7] = biological target: T6, CIEDPSQAPDC (SEQ ID NO: 75); experiment: PEPSCAN peptide ELISA
T6 peptide: CIEDPSQAPDC
Description: as §1

[8] = biological target: T7, CEDPSQAPDAC (SEQ ID NO: 76); experiment: PEPSCAN peptide ELISA
T7 peptide: CEDPSQAPDAC
Description: as §1

[9] = biological target: T8, AAAAA peptide (SEQ ID NO: 77); experiment: SPR (Biacore), huAbF46 on CM5 chip, peptide injected
T8 peptide: AAAAA

[10] = biological target: T9, AEPSQ peptide (SEQ ID NO: 78); experiment: as above
T9 peptide: AEPSQ

[11] = biological target: T10, EAPSQ peptide (SEQ ID NO: 79); experiment: as above
T10 peptide: EAPSQ

[12] = biological target: T11, EEASQ peptide (SEQ ID NO: 80); experiment: as above
T11 peptide: EEASQ

[13] = biological target: T12, EEPSA peptide (SEQ ID NO: 82); experiment: as above
T12 peptide: EEPSA

[14] = biological target: T13, EEPSQ peptide (SEQ ID NO: 3); experiment: SPR (Biacore), huAbF46 on CM5 chip, peptide injected 0.39-100 nM
T13 construct: the range is one residue short
T13 peptide: EEPSQ

[15] = biological target: T14, EEPAQ peptide (SEQ ID NO: 81); experiment: as above
T14 peptide: EEPAQ

[16] = biological target: T1, human c-Met protein; experiment: SPR (Biacore), against huAbF46 (Table 3)
Description: Affinities of the 4 types of antibodies against c-Met antigen were measured by using a Biacore (GE healthcare). About 80 to 110 RU of each antibody was immobilized on a CM5 chip, and 9 different concentrations ranging from 0.39 nM to 100 nM of human c-Met protein, as an antigen, were injected at a rate of 30 ul/min to obtain kₒₙ values and koff values as shown in Table 3. Then, KD values were calculated based thereon.

c-Met on MKN45 gastric cancer cells and on Caki-1 cells, sequence (P08581 25-1390): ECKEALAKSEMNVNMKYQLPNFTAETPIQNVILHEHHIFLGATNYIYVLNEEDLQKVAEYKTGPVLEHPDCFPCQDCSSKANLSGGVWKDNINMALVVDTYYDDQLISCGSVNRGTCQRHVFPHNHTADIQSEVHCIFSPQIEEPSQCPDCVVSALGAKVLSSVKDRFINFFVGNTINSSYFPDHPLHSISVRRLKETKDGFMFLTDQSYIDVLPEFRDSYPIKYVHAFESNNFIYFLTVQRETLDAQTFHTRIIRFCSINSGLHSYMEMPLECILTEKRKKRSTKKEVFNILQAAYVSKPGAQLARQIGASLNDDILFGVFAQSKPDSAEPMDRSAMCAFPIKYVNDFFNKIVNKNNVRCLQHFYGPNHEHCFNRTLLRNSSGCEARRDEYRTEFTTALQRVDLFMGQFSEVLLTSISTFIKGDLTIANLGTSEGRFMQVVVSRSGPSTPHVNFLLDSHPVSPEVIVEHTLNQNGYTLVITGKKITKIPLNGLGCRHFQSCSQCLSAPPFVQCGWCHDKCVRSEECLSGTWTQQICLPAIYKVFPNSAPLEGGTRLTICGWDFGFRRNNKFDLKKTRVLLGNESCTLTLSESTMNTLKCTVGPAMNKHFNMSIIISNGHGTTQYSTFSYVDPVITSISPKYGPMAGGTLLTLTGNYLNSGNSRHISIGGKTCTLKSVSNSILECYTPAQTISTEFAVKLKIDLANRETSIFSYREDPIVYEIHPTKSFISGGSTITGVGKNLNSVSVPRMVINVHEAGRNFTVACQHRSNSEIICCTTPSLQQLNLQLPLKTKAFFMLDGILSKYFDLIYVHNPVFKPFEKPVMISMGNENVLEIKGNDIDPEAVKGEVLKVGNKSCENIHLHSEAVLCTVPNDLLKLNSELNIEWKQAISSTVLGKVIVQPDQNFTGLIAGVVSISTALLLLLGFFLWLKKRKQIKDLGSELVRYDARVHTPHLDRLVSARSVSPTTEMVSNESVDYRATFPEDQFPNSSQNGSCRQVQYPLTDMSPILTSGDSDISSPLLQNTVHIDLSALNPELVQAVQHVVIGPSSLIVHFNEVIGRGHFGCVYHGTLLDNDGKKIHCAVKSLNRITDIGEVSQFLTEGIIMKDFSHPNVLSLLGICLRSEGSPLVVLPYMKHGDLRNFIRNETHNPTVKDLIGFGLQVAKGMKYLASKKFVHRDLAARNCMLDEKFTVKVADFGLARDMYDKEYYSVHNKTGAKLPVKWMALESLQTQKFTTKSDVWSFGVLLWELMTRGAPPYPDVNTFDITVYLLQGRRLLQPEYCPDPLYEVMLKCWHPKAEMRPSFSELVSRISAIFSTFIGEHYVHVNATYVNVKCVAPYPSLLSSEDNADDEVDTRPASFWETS
T1 sequence (P08581 25-932 limits assumed): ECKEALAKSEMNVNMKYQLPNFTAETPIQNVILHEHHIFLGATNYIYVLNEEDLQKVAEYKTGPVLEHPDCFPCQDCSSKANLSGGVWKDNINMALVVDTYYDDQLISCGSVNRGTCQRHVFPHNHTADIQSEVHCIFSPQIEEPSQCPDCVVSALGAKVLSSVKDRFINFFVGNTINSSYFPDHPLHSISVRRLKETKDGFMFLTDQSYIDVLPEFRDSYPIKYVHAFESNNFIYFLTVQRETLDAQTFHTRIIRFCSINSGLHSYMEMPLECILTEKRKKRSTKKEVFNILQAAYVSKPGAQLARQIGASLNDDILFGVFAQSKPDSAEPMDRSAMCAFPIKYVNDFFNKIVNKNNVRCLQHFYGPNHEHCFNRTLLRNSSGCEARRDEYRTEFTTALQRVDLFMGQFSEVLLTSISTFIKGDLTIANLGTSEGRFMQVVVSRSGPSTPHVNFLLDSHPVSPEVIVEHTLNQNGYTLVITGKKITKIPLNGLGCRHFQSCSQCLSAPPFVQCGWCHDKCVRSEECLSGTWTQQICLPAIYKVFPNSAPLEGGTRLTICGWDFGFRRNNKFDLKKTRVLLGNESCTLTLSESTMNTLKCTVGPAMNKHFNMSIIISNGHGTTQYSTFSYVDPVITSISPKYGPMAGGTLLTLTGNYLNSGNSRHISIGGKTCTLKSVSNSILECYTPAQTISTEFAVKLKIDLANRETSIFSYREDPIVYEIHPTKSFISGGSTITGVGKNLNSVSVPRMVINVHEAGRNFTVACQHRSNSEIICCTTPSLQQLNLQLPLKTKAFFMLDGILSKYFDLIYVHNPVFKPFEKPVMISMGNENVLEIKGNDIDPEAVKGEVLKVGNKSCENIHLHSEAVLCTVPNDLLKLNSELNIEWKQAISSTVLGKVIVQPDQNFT

B1: scFv of huAbF46 antibody (scFv)
scFv: EVQLVESGGGLVQPGGSLRLSCAASGFTFTDYYMSWVRQAPGKGLEWLGFIRNKANGYTTEYSASVKGRFTISRDNSKNTLYLQMNSLRAEDTAVYYCARDNWFAYWGQGTLVTVSSGLGGLGGGGSGGGGSGGSSGVGSDIQMTQSPSSLSASVGDRVTITCKSSQSLLASGNQNNYLAWHQQKPGKAPKMLIIWASTRVSGVPSRFSGSGSGTDFTLTISSLQPEDFATYYCQQSYSAPLTFGQGTKVEIKR
notes: 'VH-linker-VL' form; Tags or display fusion partner not described; also called wild-type antibody (scFv of huAbF46)
binding result [1]: binds

B2: huAbF46-H4-A5 (antibody, V domains shown)
VH: EVQLVESGGGLVQPGGSLRLSCAASGFTFTDYYMSWVRQAPGKGLEWLGFIRNKANGYTTEYSASVKGRFTISRDNSKNTLYLQMNSLRAEDTAVYYCARDNWFAYWGQGTLVTVSS
VL: DIQMTQSPSSLSASVGDRVTITCKSSQSLLASGNQNNYLAWHQQKPGKAPKMLIIWASTRVSGVPSRFSGSGSGTDFTLTISSLQPEDFATYYCQQSYSRPFTFGQGTKVEIKR
degree of degradation of c-Met (total c-Met ELISA, MKN45 cells, 5 ug/ml antibody, 24 hours) [2]: ~28%

B3: humanized antibody huAbF46 (H4-heavy chain and H4-light chain) (antibody, human IgG1, kappa, V domains shown)
VH: B2 VH
VL: B2 VL with R100A, F102L
notes: also called humanized antibody AbF46
binding result [3]: no binding (tested: 1 to 100 ug/ml of huAbF46 antibody)
binding result [4]: no binding (tested: 1 to 100 ug/ml of huAbF46 antibody)
binding result [5]: no binding (tested: 1 to 100 ug/ml of huAbF46 antibody)
binding result [6]: no binding (tested: 1 to 100 ug/ml of huAbF46 antibody)
binding result [7]: no binding (tested: 1 to 100 ug/ml of huAbF46 antibody)
binding result [8]: no binding (tested: 1 to 100 ug/ml of huAbF46 antibody)
binding result [9]: no binding (tested: 100 nM to 0.39 nM of the peptides)
binding result [10]: no binding (tested: 100 nM to 0.39 nM of the peptides)
binding result [11]: no binding (tested: 100 nM to 0.39 nM of the peptides)
binding result [12]: no binding (tested: 100 nM to 0.39 nM of the peptides)
binding result [13]: no binding (tested: 100 nM to 0.39 nM of the peptides)
Kd [14]: 1.64 nM
Kd [15]: 1.43 nM

B4: huAbF46-H4-A3 (antibody, V domains shown)
VH: B2 VH
VL: B2 VL with Q95A, R100H, T103S
degree of degradation of c-Met (total c-Met ELISA, MKN45 cells, 5 ug/ml antibody, 24 hours) [2]: ~28%

B5: huAbF46-H4-A1 (antibody, V domains shown)
VH: B2 VH
VL: B2 VL with F102Y
notes: IgG; also called IgG from clone L3-1
degree of degradation of c-Met (total c-Met ELISA, MKN45 cells, 5 ug/ml antibody, 24 hours) [2]: ~37%
fold improvement of affinity [16]: 37 times

B6: huAbF46-H4-A2 (antibody, V domains shown)
VH: B2 VH
VL: B2 VL with Q95G, F102L
notes: IgG; also called IgG from clone L3-2
degree of degradation of c-Met (total c-Met ELISA, MKN45 cells, 5 ug/ml antibody, 24 hours) [2]: ~28%
fold improvement of affinity [16]: 5 times
